Laboratory results as given in publication PMC12048676.
pKd: −log10 of the molar value. Blank lines part the entries; values can stand above or below the substance they belong to.

What was measured:
[1] = molecular target: prenylated A647-Cdc42 (human) (UniProt P60953)
[2] = molecular target: biotin-Cy3-Cdc42 (geranylgeranylated) (human) (UniProt P60953); test: single-molecule dual-color TIRF microscopy, co-recruitment; 100 pM biotin-Cy3-Cdc42:A647-RhoGDI1 complex, imaged <2 min after dilution, captured on neutravidin-coated biotin-PEG coverslips; 50 mM HEPES pH 7.5, 50 mM NaCl, 2 mM MgCl2; 22 ms per frame; 23 °C
RhoGDI1 (Homo sapiens) = RhoGDI1 (Homo sapiens) (UniProt P52565); details: cited from earlier work
Sequence of UniProt P52565 (P52565 2-204): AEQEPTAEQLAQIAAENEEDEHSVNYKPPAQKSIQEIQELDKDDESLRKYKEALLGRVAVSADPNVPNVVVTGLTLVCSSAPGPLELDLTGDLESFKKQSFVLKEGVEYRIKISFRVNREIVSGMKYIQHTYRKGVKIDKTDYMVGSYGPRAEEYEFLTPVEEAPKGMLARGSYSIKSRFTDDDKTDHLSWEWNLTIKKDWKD

[3] = molecular target: geranylgeranylated Cy3-Cdc42 (human) (UniProt P60953)
[4] = molecular target: prenylated A647-Cdc42 (human) (UniProt P60953); remark: listed apart in the source
[5] = molecular target: prenylated A647-Cdc42 (human) (UniProt P60953); remark: listed apart in the source

Sequence of Cdc42 (P60953 1-188): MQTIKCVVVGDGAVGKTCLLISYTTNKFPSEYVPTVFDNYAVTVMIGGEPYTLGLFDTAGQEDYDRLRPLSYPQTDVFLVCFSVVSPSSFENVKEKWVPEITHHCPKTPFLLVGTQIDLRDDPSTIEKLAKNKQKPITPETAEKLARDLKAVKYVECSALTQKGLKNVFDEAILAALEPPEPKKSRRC

dwell time of A647-Cdc42 on the membrane inside the GEF-containing region in microfluidic flow-out, with 2xwCRIB [1]: 1.4 fold
Substance: A488-2xwCRIB (from UniProt P42768 201-268; P42768 201-268) (domain or fragment)

fraction of Cdc42 molecules co-recruited with RhoGDI1 [2]: 63%
Substance: A647-RhoGDI1 (from UniProt P19803 1-204) (natural protein)

Substance: Cdc42 (from UniProt P60953)
pKd (RhoGDI1 (Homo sapiens)): 10.05

maximal rate of nucleotide exchange (Cy5-GDP to unlabeled GDP) from Cy5-GDP:Cy3-Cdc42:RhoGDI1 complexes (100 nM) with ITSNcat-His10 pre-bound to PM LUVs, GEF concentration varied [3]: 0.0002 s⁻¹
concentration of Cdc42:RhoGDI1 complexes against free Cdc42 needed to reach similar levels of membrane-bound GTPase on SLBs (600 nM vs 5.5 nM) [4]: 100 fold
Substance: RhoGDI1 (unlabeled) (from UniProt P19803 1-204) (natural protein)

patterning index of A647-Cdc42 (inside against outside of GEF-containing areas) after GEF addition in the presence of Atto488-N-WASP [5]: 1.35
Substance: full-length Atto488-N-WASP (from UniProt O00401 1-505) (natural protein)
